“Also recorded” adds a separate entry of the source.
What was measured:
[1] = system: binding of the TS-A12/22 antibody to C5; assay: Competitive ELISA on solid-phase C5 after pre-incubation of TS-A12/22 with peptide; set-up: species or system human; details: 800 ng CS5 or 3.5 μg C5a fragment; highest concentrations used
Description: Binding of the antibody, pre-incubated in different conditions, was assessed by immuno-enzymatic assay using C5 on solid phase.
This peptide corresponds to region 727-744 of the mature protein and comprises the cleavage site of C5 convertase (indicated by the arrow) between […] according to SwissProt numbering for human C5 (SEQ ID P01031). The peptide was used in a competitive ELISA assay on the C5 protein on solid phase. Before binding to the solid phase, the TS-A12/22 antibody was pre-incubated with the PSA-18 peptide, corresponding to amino acids 727-744 of the C5 component, or with an unrelated peptide of sequence […] (SEQ ID NO:16 of sequence listing) corresponding to a fibronectin derived peptide termed CS5.

factor C5 = biological target: T1, factor C5 (Homo sapiens, UniProt P01031); assay: Surface plasmon resonance (BIACORE 2000) on C5 immobilized on chip; type: binding; details: read-out: KD calculated
T1 construct: C5 alpha and beta subunits were obtained by incubating 50 μg of C5; purchased Quidel
T1 sequence (P01031 678-1676 limits assumed): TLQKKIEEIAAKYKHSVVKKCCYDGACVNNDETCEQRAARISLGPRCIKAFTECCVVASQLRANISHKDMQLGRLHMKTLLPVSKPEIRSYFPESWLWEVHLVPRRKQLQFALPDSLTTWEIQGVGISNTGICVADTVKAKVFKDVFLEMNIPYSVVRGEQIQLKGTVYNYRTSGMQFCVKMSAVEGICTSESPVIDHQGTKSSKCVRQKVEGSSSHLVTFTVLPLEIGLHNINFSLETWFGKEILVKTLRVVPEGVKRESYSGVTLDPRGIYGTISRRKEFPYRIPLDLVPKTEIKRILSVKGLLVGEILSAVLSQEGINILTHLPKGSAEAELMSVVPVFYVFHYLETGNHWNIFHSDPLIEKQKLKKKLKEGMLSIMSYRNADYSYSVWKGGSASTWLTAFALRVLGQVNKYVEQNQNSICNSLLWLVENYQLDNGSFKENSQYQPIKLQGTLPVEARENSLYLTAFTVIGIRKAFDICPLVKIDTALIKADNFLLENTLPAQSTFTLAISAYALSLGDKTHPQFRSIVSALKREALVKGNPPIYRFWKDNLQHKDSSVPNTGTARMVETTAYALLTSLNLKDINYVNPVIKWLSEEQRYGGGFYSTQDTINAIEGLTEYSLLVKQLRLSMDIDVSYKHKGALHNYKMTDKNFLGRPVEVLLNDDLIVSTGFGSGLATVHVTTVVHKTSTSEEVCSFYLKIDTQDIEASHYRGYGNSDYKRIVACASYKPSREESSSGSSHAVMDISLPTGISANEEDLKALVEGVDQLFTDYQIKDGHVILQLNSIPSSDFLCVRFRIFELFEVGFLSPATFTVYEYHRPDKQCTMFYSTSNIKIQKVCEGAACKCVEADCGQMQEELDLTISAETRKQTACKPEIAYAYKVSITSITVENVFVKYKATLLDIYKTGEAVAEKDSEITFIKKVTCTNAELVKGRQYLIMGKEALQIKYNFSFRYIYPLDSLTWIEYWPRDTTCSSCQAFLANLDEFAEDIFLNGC
T1 sequence (P01031 19-673 partner limits assumed): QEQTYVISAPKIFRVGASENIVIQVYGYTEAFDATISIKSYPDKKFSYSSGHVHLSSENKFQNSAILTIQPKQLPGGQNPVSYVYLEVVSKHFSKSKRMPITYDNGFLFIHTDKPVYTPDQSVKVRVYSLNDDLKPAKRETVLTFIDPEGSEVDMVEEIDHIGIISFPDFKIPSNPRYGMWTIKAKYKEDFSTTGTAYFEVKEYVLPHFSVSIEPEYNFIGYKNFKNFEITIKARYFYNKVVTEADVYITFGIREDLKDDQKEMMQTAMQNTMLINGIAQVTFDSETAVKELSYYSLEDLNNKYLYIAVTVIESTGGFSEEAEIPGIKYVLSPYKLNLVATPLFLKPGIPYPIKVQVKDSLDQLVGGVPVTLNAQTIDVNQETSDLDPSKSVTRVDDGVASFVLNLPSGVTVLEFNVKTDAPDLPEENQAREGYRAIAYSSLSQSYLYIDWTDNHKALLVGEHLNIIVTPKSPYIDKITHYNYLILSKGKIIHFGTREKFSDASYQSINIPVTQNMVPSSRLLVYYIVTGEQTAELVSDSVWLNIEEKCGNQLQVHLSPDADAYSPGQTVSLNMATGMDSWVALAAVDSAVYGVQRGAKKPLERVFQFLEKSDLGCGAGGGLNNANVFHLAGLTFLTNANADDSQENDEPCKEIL
Description: The binding affinity of the Tsa-12 antibody, purified by means of FPLC on Superdex 75 (Pharmacia), for factor C5 was measured by means of BIACORE™ 2000 (a system that generates unique data on the interactions between proteins and other molecules). The microchip (CM5, Biacore) was prepared by direct conjugation of the C5 antigen with amines (20 μg/ml in 10 mM Sodium Acetate pH 4.5). The final level of immobilisation turned out to be approximately 1000 RU (Resonance Units). Association and dissociation of antibody molecules from the bio-chip were measured using an optical detection system (Surface Plasmon Resonance). The analysis was carried out at 25° C., at a flow of 15 μl/min, using 4 different scFv concentrations in the range comprised between 100-300 nM, in PBS, 0.005% P20 (Biacore). The binding curves were interpolated 1:1 according to the model of Langmuir, using the dedicated software termed BIAevaluation (version 3.5) with correction for the mass transfer. In order to increase the affinity, the TS-A12 antibody was subjected to substitution (“shuffling”) of the VL light chains. For this purpose the phagemid DNA was cut with BssHII and SaII to excise the VL region. This region was substituted with all the repertoire of VL chains of a preimmune library (Sblattero, D., and Bradbury A., 2000, Nat. Biotechnol. 18:75) that was prepared with same enzymes. […]

C5 [2] = biological target: T2, C5 (Homo sapiens, UniProt P01031); assay: ELISA of C5a released after cleavage of C5 by C5 convertase; type: biochemical; details: FIG. 1A, classical pathway
T2 construct: C5 alpha and beta subunits were obtained by incubating 50 μg of C5; purchased Quidel
T2 sequence (P01031 678-1676 limits assumed): as the sequence (P01031 678-1676 limits assumed) above
T2 sequence (P01031 19-673 partner limits assumed): as the sequence (P01031 19-673 partner limits assumed) above
Description: (§1) Panel A) The ELISA assay measures the amount of C5a fragment released in the supernatant after enzymatic cleavage of C5, using antibodies anti-C5 as described in example 6. […] Sheep erythrocytes sensitised with antibodies and coated until the C3b (EAC1-3b) complement step were added to the mixture of TS-A12 or TS-A12/22 and C5, and the mixture was further incubated for 30 minutes at 37° C. (panel B).
(§2) The obtained anti-C5 scFv fragments were further characterised for their ability to inhibit the hemolytic activity of C5 or, in other words, to block conversion of the C5 component to C5a. […] At the end of this procedure, cell lysis was measured as percentage of the control of total lysis in distilled H2O (see FIG. 1, panel B). The inhibition of C5a and TCC production by the scFv TS-A12 and TS-A12/22 was measured by means of ELISA using the monoclonal antibody 17/5 as the capture antibody and antibody G25/2 as detection antibody according to what has been described in Opperman et al., 1991, Complement Inflamm. […] The presence of TCC was measured using antibody aE11 as the capture antibody and a biotinylated anti-C5 antibody (SIGMA-ALDRICH®) followed by alkaline phosphatase-conjugated streptavidin, as described by Tedesco et al. (1997, J Exp. Med. 185:1619).

C5 [3] = biological target: T2, C5; assay: Haemolytic assay / TCC ELISA with EAC1-3b sheep erythrocytes and C5 depleted serum; type: biochemical; details: FIG. 1B
Description: as §1
Sheep erythrocytes (SBRC: Sheep red blood cells) were sensitised with sub-agglutinating amounts of rabbit IgM (EA). […]
as §2

binding of the TS-A12/22 antibody to C5, sequence (P01031 678-1676 partner limits assumed, one chain of several): as the sequence (P01031 678-1676 limits assumed) above
binding of the TS-A12/22 antibody to C5, sequence (P01031 19-673 partner limits assumed, one chain of several): as the sequence (P01031 19-673 partner limits assumed) above

Row | Molecule | inhibition of binding of TS-A12/22 to C5 (in words) [1] | Kd (factor C5) [nM] | inhibition of formation of C5a (C5 [2]) | inhibition of formation of TCC (C5 [3])
1 | GEEIQIGHIPREDVDYHLYP (PEPTIDE (1)..(20) fibronectin derived peptide; listed as Homo sapiens) [CS5, unrelated fibronectin derived peptide] | ineffective; also recorded: NO inhibition | – | – | –
2 | TS-A12: human anti-C5 single chain scFv antibody clone selected from a naive phage library (protein, listed as Homo sapiens) scFv: DIRMTQSPDSLAVSLGERATINCKSSQSVLYSSNNKNYLAWYQQKPGQPPKLLIYWASTRESGVPDRFSGSGSGTDFTLTISSLQAEDVAVYYCQQYYSTPQLTFGGRTKVDIKSGGSTITSYNVYYTKLSSSGTQVQLQQSEGGVVQPGRSLRLSCAASGFTFSSYGMNWVRQAPGKGLEWVSYISSSSSTIYYADSVKGRFTISRDNSKNTLYLQMNSLRAEDTAVYYCARGPGMDVWGQGTTVTVSS | – | 200 | inhibit almost completely | inhibit almost completely
3 | C5A: C5a fragment; human recombinant C5a component purchased from SIGMA-ALDRICH (protein, UniProt P01031 678-751, looked up, C5a anaphylatoxin, C5a fragment; human recombinant C5a component purchased from SIGMA-ALDRICH) C5a anaphylatoxin: TLQKKIEEIAAKYKHSVVKKCCYDGACVNNDETCEQRAARISLGPRCIKAFTECCVVASQLRANISHKDMQLGR | NO inhibition | – | – | –

Source: US8962819B2, “Anti-C5 alpha antibodies” (Adienne S.A., priority 2002, dated 2015)
